According to article PMC9482650, “Quantitative fragmentomics allow affinity mapping of interactomes” (Nature Communications, 2022):

T1: NHERF3_4, Q5T2W1
T1 sequence (Q5T2W1 373-468, limits assumed, looked up): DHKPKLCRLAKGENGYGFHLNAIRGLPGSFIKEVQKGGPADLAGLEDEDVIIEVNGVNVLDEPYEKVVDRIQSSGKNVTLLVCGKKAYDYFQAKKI

T2: DVL3, Q92997
T2 sequence (Q92997 244-331, limits assumed, looked up): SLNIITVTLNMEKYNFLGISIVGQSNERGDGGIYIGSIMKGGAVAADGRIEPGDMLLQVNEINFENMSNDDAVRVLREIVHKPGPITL

T3: APBA3_1, O96018
T3 sequence (O96018 389-490, limits assumed, looked up): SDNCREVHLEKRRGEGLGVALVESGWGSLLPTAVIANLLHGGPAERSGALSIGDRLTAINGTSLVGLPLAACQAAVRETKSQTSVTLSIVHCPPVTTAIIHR

T4: CARD11, Q9BXL7
T4 sequence (Q9BXL7 662-765, limits assumed, looked up): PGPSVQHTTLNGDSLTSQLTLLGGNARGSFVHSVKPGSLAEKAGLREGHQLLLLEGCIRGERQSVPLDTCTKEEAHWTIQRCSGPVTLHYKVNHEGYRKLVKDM

T5: MPDZ_10, O75970
T5 sequence (O75970 1624-1722, limits assumed, looked up): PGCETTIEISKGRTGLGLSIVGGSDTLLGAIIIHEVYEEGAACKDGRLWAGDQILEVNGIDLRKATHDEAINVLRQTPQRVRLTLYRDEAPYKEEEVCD

T6: RADIL, Q96JH8
T6 sequence (Q96JH8 971-1071, limits assumed, looked up): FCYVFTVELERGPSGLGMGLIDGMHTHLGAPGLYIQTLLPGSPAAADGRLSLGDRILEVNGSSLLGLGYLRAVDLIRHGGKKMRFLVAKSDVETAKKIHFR

T7: MPP7, Q5T2T1
T7 sequence (Q5T2T1 134-230, limits assumed, looked up): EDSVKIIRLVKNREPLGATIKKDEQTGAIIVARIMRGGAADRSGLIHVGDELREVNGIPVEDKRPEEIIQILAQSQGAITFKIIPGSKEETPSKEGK

T8: ARHGAP21, Q5T5U3
T8 sequence (Q5T5U3 45-169, limits assumed, looked up): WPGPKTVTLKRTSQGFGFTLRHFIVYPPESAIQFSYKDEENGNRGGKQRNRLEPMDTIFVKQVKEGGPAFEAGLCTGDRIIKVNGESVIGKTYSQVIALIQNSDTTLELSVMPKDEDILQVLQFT


Molecular target: T1, NHERF3_4, Q5T2W1
Assay: holdup assay
Design: key: below the threshold = too weak to quantify, mostly under pKd 3.1 to 4
Details: plain residues with an end cap or a label only (N-terminal biotin on a linker: ado-ado)

Binder	pKd
SKSLERATQL [COMMD3, Q9UBI1]	4.67
REVVMRVTTV [MARCHF9, Q86YJ5]	below the threshold

Molecular target: SCRIB_3, Q14160
Sequence (Q14160 999-1103): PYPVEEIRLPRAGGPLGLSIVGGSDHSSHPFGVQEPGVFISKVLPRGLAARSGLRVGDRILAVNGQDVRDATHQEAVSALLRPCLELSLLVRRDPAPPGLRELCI
Assay: holdup assay
Design: key: below the threshold = too weak to quantify, mostly under pKd 3.1 to 4
Details: plain residues with an end cap or a label only (N-terminal biotin on a linker: ado-ado)

Binder	pKd
SKSLERATQL [COMMD3, Q9UBI1]	4.54
REVVMRVTTV [MARCHF9, Q86YJ5]	4.43

Molecular target: T2, DVL3, Q92997
Assay: holdup assay
Design: key: below the threshold = too weak to quantify, mostly under pKd 3.1 to 4
Details: plain residues with an end cap or a label only (N-terminal biotin on a linker: ado-ado)

Binder	pKd
SKSLERATQL [COMMD3, Q9UBI1]	3.58
REVVMRVTTV [MARCHF9, Q86YJ5]	below the threshold

Molecular target: T3, APBA3_1, O96018
Assay: holdup assay
Design: key: below the threshold = too weak to quantify, mostly under pKd 3.1 to 4
Details: plain residues with an end cap or a label only (N-terminal biotin on a linker: ado-ado)

Binder	pKd
SKSLERATQL [COMMD3, Q9UBI1]	below the threshold
REVVMRVTTV [MARCHF9, Q86YJ5]	below the threshold

Molecular target: MAGI2_3, Q86UL8
Sequence (Q86UL8 600-682): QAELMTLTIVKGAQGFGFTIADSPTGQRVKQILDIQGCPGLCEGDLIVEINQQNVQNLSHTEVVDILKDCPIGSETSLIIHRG
Assay: holdup assay
Design: key: below the threshold = too weak to quantify, mostly under pKd 3.1 to 4
Details: plain residues with an end cap or a label only (N-terminal biotin on a linker: ado-ado)

Binder	pKd
SKSLERATQL [COMMD3, Q9UBI1]	below the threshold
REVVMRVTTV [MARCHF9, Q86YJ5]	4.6

Molecular target: LNX1_1, Q8TBB1
Sequence (Q8TBB1 261-371): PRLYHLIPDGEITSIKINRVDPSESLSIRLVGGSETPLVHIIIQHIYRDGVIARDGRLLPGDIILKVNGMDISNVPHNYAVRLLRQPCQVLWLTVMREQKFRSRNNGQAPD
Assay: holdup assay
Design: key: below the threshold = too weak to quantify, mostly under pKd 3.1 to 4
Details: plain residues with an end cap or a label only (N-terminal biotin on a linker: ado-ado)

Binder	pKd
SKSLERATQL [COMMD3, Q9UBI1]	3.87
REVVMRVTTV [MARCHF9, Q86YJ5]	4.41

Molecular target: T4, CARD11, Q9BXL7
Assay: holdup assay
Design: key: below the threshold = too weak to quantify, mostly under pKd 3.1 to 4
Details: plain residues with an end cap or a label only (N-terminal biotin on a linker: ado-ado)

Binder	pKd
SKSLERATQL [COMMD3, Q9UBI1]	below the threshold
REVVMRVTTV [MARCHF9, Q86YJ5]	below the threshold

Molecular target: T5, MPDZ_10, O75970
Assay: holdup assay
Design: key: below the threshold = too weak to quantify, mostly under pKd 3.1 to 4
Details: plain residues with an end cap or a label only (N-terminal biotin on a linker: ado-ado)

Binder	pKd
SKSLERATQL [COMMD3, Q9UBI1]	below the threshold
REVVMRVTTV [MARCHF9, Q86YJ5]	4.4

Molecular target: GORASP1, Q9BQQ3
Sequence (Q9BQQ3 1-208): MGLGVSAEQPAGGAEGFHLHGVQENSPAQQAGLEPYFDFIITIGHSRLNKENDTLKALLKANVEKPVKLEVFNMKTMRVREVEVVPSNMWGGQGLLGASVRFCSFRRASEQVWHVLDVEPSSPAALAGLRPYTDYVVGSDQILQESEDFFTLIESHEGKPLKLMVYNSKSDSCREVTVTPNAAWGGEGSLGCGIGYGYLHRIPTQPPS
Assay: holdup assay
Design: key: below the threshold = too weak to quantify, mostly under pKd 3.1 to 4
Details: plain residues with an end cap or a label only (N-terminal biotin on a linker: ado-ado)

Binder	pKd
SKSLERATQL [COMMD3, Q9UBI1]	3.78
REVVMRVTTV [MARCHF9, Q86YJ5]	4.31

Molecular target: MAGI2_4, Q86UL8
Sequence (Q86UL8 772-865): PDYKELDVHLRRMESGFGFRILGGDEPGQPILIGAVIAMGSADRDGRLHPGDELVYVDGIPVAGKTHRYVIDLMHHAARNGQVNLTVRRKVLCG
Assay: holdup assay
Design: key: below the threshold = too weak to quantify, mostly under pKd 3.1 to 4
Details: plain residues with an end cap or a label only (N-terminal biotin on a linker: ado-ado)

Binder	pKd
SKSLERATQL [COMMD3, Q9UBI1]	3.94
REVVMRVTTV [MARCHF9, Q86YJ5]	4.77

Molecular target: LNX1_2, Q8TBB1
Sequence (Q8TBB1 371-470): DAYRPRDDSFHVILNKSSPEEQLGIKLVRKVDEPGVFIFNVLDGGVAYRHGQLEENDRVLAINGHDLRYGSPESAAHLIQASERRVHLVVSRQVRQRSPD
Assay: holdup assay
Design: key: below the threshold = too weak to quantify, mostly under pKd 3.1 to 4
Details: plain residues with an end cap or a label only (N-terminal biotin on a linker: ado-ado)

Binder	pKd
SKSLERATQL [COMMD3, Q9UBI1]	below the threshold
REVVMRVTTV [MARCHF9, Q86YJ5]	4.56

Molecular target: Inadl_10, Q8NI35
Sequence (Q8NI35 1673-1763): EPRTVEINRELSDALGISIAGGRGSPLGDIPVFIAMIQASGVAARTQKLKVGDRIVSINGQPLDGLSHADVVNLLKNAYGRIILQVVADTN
Assay: holdup assay
Design: key: below the threshold = too weak to quantify, mostly under pKd 3.1 to 4
Details: plain residues with an end cap or a label only (N-terminal biotin on a linker: ado-ado)

Binder	pKd
SKSLERATQL [COMMD3, Q9UBI1]	below the threshold
REVVMRVTTV [MARCHF9, Q86YJ5]	3.6

Molecular target: MAGI1_1, Q96QZ7
Sequence (Q96QZ7 1-106): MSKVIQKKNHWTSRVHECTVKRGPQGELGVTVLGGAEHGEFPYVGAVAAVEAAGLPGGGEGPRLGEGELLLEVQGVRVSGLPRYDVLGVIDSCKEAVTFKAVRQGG
Assay: holdup assay
Design: key: below the threshold = too weak to quantify, mostly under pKd 3.1 to 4
Details: plain residues with an end cap or a label only (N-terminal biotin on a linker: ado-ado)

Binder	pKd
SKSLERATQL [COMMD3, Q9UBI1]	below the threshold
REVVMRVTTV [MARCHF9, Q86YJ5]	below the threshold

Molecular target: ARHGEF12, Q9NZN5-2
Sequence (Q9NZN5 other isoform, or with tags, fused parts or gaps): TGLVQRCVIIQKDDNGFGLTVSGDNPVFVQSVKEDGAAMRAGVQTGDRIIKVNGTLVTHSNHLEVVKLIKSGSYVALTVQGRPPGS
Assay: holdup assay
Design: key: below the threshold = too weak to quantify, mostly under pKd 3.1 to 4
Details: plain residues with an end cap or a label only (N-terminal biotin on a linker: ado-ado)

Binder	pKd
SKSLERATQL [COMMD3, Q9UBI1]	4.79
REVVMRVTTV [MARCHF9, Q86YJ5]	4.8

Molecular target: FRMPD4, Q14CM0
Sequence (Q14CM0 67-160): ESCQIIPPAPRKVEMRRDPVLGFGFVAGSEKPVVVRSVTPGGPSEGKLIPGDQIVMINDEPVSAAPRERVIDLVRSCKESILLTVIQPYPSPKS
Assay: holdup assay
Design: key: below the threshold = too weak to quantify, mostly under pKd 3.1 to 4
Details: plain residues with an end cap or a label only (N-terminal biotin on a linker: ado-ado)

Binder	pKd
SKSLERATQL [COMMD3, Q9UBI1]	4.33
REVVMRVTTV [MARCHF9, Q86YJ5]	below the threshold

Molecular target: NOS1, P29475
Sequence (P29475 9-101): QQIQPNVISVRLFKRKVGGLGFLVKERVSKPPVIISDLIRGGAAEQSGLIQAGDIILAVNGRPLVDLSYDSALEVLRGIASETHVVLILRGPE
Assay: holdup assay
Design: key: below the threshold = too weak to quantify, mostly under pKd 3.1 to 4
Details: plain residues with an end cap or a label only (N-terminal biotin on a linker: ado-ado)

Binder	pKd
SKSLERATQL [COMMD3, Q9UBI1]	4.02
REVVMRVTTV [MARCHF9, Q86YJ5]	3.76

Molecular target: FRMPD2_3, Q68DX3
Sequence (Q68DX3 1073-1166): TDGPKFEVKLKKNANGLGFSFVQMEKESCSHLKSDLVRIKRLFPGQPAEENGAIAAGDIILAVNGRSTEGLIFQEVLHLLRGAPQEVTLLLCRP
Assay: holdup assay
Design: key: below the threshold = too weak to quantify, mostly under pKd 3.1 to 4
Details: plain residues with an end cap or a label only (N-terminal biotin on a linker: ado-ado)

Binder	pKd
SKSLERATQL [COMMD3, Q9UBI1]	3.49
REVVMRVTTV [MARCHF9, Q86YJ5]	below the threshold

Molecular target: GRIP2_5, Q9C0E4
Sequence (Q9C0E4 544-642): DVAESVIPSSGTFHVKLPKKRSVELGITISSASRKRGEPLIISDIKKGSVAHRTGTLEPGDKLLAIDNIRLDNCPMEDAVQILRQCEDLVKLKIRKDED
Assay: holdup assay
Design: key: below the threshold = too weak to quantify, mostly under pKd 3.1 to 4
Details: plain residues with an end cap or a label only (N-terminal biotin on a linker: ado-ado)

Binder	pKd
SKSLERATQL [COMMD3, Q9UBI1]	below the threshold
REVVMRVTTV [MARCHF9, Q86YJ5]	below the threshold

Molecular target: MAGI2_2, Q86UL8
Sequence (Q86UL8 410-522): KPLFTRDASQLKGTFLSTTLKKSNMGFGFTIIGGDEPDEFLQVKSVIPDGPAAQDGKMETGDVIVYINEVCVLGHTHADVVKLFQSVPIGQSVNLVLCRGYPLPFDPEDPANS
Assay: holdup assay
Design: key: below the threshold = too weak to quantify, mostly under pKd 3.1 to 4
Details: plain residues with an end cap or a label only (N-terminal biotin on a linker: ado-ado)

Binder	pKd
SKSLERATQL [COMMD3, Q9UBI1]	3.71
REVVMRVTTV [MARCHF9, Q86YJ5]	5.14

Molecular target: T6, RADIL, Q96JH8
Assay: holdup assay
Design: key: below the threshold = too weak to quantify, mostly under pKd 3.1 to 4
Details: plain residues with an end cap or a label only (N-terminal biotin on a linker: ado-ado)

Binder	pKd
SKSLERATQL [COMMD3, Q9UBI1]	3.63
REVVMRVTTV [MARCHF9, Q86YJ5]	4.68

Molecular target: MAGI3_2, Q5TCQ9
Sequence (Q5TCQ9 398-503): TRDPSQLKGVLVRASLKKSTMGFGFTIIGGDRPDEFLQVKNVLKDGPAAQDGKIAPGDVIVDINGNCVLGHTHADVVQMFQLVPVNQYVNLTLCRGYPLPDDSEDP
Assay: holdup assay
Design: key: below the threshold = too weak to quantify, mostly under pKd 3.1 to 4
Details: plain residues with an end cap or a label only (N-terminal biotin on a linker: ado-ado)

Binder	pKd
SKSLERATQL [COMMD3, Q9UBI1]	3.75
REVVMRVTTV [MARCHF9, Q86YJ5]	5.16

Molecular target: DLG2_2, Q15700
Sequence (Q15700 189-283): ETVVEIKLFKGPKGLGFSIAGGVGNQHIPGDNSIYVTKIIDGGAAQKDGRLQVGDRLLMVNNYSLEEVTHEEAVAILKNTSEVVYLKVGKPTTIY
Assay: holdup assay
Design: key: below the threshold = too weak to quantify, mostly under pKd 3.1 to 4
Details: plain residues with an end cap or a label only (N-terminal biotin on a linker: ado-ado)

Binder	pKd
SKSLERATQL [COMMD3, Q9UBI1]	3.83
REVVMRVTTV [MARCHF9, Q86YJ5]	5.2

Molecular target: Inadl_9, Q8NI35
Sequence (Q8NI35 1530-1615): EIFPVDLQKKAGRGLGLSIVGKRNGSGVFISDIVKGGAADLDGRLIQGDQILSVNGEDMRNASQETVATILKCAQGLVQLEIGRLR
Assay: holdup assay
Design: key: below the threshold = too weak to quantify, mostly under pKd 3.1 to 4
Details: plain residues with an end cap or a label only (N-terminal biotin on a linker: ado-ado)

Binder	pKd
SKSLERATQL [COMMD3, Q9UBI1]	below the threshold
REVVMRVTTV [MARCHF9, Q86YJ5]	3.75

Molecular target: DLG4_1, P78352
Sequence (P78352 62-152): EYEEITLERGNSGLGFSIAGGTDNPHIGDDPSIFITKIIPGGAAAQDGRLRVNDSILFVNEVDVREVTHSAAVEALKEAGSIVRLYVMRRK
Assay: holdup assay
Design: key: below the threshold = too weak to quantify, mostly under pKd 3.1 to 4
Details: plain residues with an end cap or a label only (N-terminal biotin on a linker: ado-ado)

Binder	pKd
SKSLERATQL [COMMD3, Q9UBI1]	below the threshold
REVVMRVTTV [MARCHF9, Q86YJ5]	5.06

Molecular target: Inadl_6, Q8NI35
Sequence (Q8NI35 1058-1167): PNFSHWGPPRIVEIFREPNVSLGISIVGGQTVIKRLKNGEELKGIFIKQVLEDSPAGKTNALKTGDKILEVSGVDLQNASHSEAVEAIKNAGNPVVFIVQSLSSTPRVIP
Assay: holdup assay
Design: key: below the threshold = too weak to quantify, mostly under pKd 3.1 to 4
Details: plain residues with an end cap or a label only (N-terminal biotin on a linker: ado-ado)

Binder	pKd
SKSLERATQL [COMMD3, Q9UBI1]	3.57
REVVMRVTTV [MARCHF9, Q86YJ5]	3.89

Molecular target: T7, MPP7, Q5T2T1
Assay: holdup assay
Design: key: below the threshold = too weak to quantify, mostly under pKd 3.1 to 4
Details: plain residues with an end cap or a label only (N-terminal biotin on a linker: ado-ado)

Binder	pKd
SKSLERATQL [COMMD3, Q9UBI1]	below the threshold
REVVMRVTTV [MARCHF9, Q86YJ5]	below the threshold

Molecular target: PTPN3, P26045
Sequence (P26045 505-587): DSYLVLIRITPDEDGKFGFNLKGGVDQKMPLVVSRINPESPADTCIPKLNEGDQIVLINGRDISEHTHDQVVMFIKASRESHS
Assay: holdup assay
Design: key: below the threshold = too weak to quantify, mostly under pKd 3.1 to 4
Details: plain residues with an end cap or a label only (N-terminal biotin on a linker: ado-ado)

Binder	pKd
SKSLERATQL [COMMD3, Q9UBI1]	4.91
REVVMRVTTV [MARCHF9, Q86YJ5]	4.91

Molecular target: PDZRN4_1, Q6ZMN7
Sequence (Q6ZMN7 213-318): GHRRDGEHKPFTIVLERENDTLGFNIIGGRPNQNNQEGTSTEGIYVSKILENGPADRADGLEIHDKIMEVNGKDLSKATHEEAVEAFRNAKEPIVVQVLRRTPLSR
Assay: holdup assay
Design: key: below the threshold = too weak to quantify, mostly under pKd 3.1 to 4
Details: plain residues with an end cap or a label only (N-terminal biotin on a linker: ado-ado)

Binder	pKd
SKSLERATQL [COMMD3, Q9UBI1]	3.89
REVVMRVTTV [MARCHF9, Q86YJ5]	3.86

Molecular target: LDB3, O75112
Sequence (O75112 1-94): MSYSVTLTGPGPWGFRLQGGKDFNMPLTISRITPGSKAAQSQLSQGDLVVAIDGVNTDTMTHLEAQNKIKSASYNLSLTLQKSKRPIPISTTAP
Assay: holdup assay
Design: key: below the threshold = too weak to quantify, mostly under pKd 3.1 to 4
Details: plain residues with an end cap or a label only (N-terminal biotin on a linker: ado-ado)

Binder	pKd
SKSLERATQL [COMMD3, Q9UBI1]	below the threshold
REVVMRVTTV [MARCHF9, Q86YJ5]	below the threshold

Molecular target: T8, ARHGAP21, Q5T5U3
Assay: holdup assay
Design: key: below the threshold = too weak to quantify, mostly under pKd 3.1 to 4
Details: plain residues with an end cap or a label only (N-terminal biotin on a linker: ado-ado)

Binder	pKd
SKSLERATQL [COMMD3, Q9UBI1]	below the threshold
REVVMRVTTV [MARCHF9, Q86YJ5]	below the threshold
